Test results as given in patent US7981997B2, “Growth factor which acts through ErbB-4 RTK” (Yeda Research And Development Co., priority 2000, dated 2011).

Assays:
Assay type in all cases: cell-based
[1] = tested on: D1 cells (32D expressing ErbB-1); test: 32D cell proliferation, 24-hour dose-response MTT assay; settings: 24-hour dose-response, without IL-3
Experimental: (§1) The indicated derivative lines of 32D cells were tested for cell proliferation using the [3-(4,5-dimethylthiazol-2-yl)-2,5-diphenyl]tetrazolium bromide (MTT) assay. […] The MT assay was performed 24 hours later. Results are presented as percent induction over the control untreated cells, and are the mean±S.D. of 4 determinations. Each experiment was repeated at least twice with similar findings.
(§2) The establishment of a series of interleukin 3 (IL-3)-dependent 32D myeloid cells expressing all combinations of ErbB proteins has been described (Alimandi et al., 1997; Pinkas-Kramarski et al., 1996; Shelly et al., 1998). Cells were maintained in RPMI medium with 10% fetal bovine serum (FBS) and dilute IL3-containing conditioned medium. Prior to proliferation assays, cells were washed three times in RPMI/FBS and plated (5×10^5 cells/ml; 0.1 ml/well) into 96-well flat-bottomed plates with the indicated liconcentrations or with IL-3 (1:1000 dilution of conditioned medium). Cell survival was determined 24 hours later, or after the indicated time intervals, by MTT assay, as previously described (Mosman, 1983). MTT (0.05 mg/ml) was incubated with the analyzed cells for 2 hours at 37 C. Living cells can transform the tetrazolium ring into dark blue formazan crystals, that can be quantified by reading the optical density at 540-630 nm after lysis of the cells with acidic isopropanol.
(§3) To test the prediction that the novel transcript encodes an ErbB-specific ligand, the corresponding full-length EGF-like domain (residues 4-50, FIG. 1a, SEQ ID NO:2) was synthesized, denatured and refolded to allow proper disulfide bridging. This method has been used before to synthesize functionally active derivatives of other EGF-like growth factors (Barbacci et al., 1995; Lin et. al., 1988; Shelly et al., 1998). A series of derivatives of the 32D cell line engineered to express different ErbB receptors or their combinations has been previously described (Pinkas-Kramarski et al., 1996; Shelly et al., 1998). The myeloid 32D parental cells require cytokine stimulation, such as interleukin 3 (IL3) for their growth, and were chosen because they lack endogenous ErbB expression.

[2] = tested on: D12 cells (32D co-expressing ErbB-1 and ErbB-2); test: as above; settings: 24-hour dose-response
Experimental: as §1, §2, §3

D13 cells = test: as above; settings: 24-hour dose-response
Experimental: as §1, §2, §3

[3] = tested on: D2 cells (32D expressing ErbB-2); test: as above; settings: 24-hour dose-response, without IL-3
Experimental: as §1, §2, §3

D23 cells = test: as above; settings: 24-hour dose-response
Experimental: as §1, §2, §3

[4] = tested on: D24 cells (32D co-expressing ErbB-4 and ErbB-2); test: as above
Experimental: as §1, §2, §3

[5] = tested on: D3 cells (32D expressing ErbB-3); test: as above; settings: 24-hour dose-response
Experimental: as §1, §2, §3

[6] = tested on: D4 cells (32D expressing ErbB-4); test: as above; settings: 24-hour dose-response, in comparison to NRG-1β control
Experimental: as §1, §2, §3

[7] = tested on: D24 cells (32D co-expressing ErbB-4 and ErbB-2); test: Long-term cell survival assay in the absence of IL-3 (MTT); settings: ligand 100 ng/ml, MTT daily
Experimental: FIG. 3b show survival effect of NRG-4 on ErbB-expressing derivatives of 32D cells. The indicated derivatives of 32D cells were incubated for various time intervals in the absence of IL-3. […] For control, cells were incubated with medium conditioned by IL-3-producing cells (open triangles), or with no factor (open circles). The extent of cell proliferation was determined daily by using the calorimetric MTT assay. The data presented are the mean±S.D. of 4 determinations. Note that co-expression of ErbB-1 and ErbB-2 (D12 cells) enabled cell survival in the absence of IL-3. The experiment was repeated twice with similar results.
as §2, with “Prior to proliferation assays, cells were washed three times in RPMI/FBS and plated (5×10^5 cells/ml; 0.1 ml/well) into 96-well flat-bottomed plates with the indicated liconcentrations or with IL-3 (1:1000 dilution of conditioned medium).” left out, “isopropanol. […]” for “isopropanol.”

[8] = tested on: 180-kDa ErbB receptors and MAP-kinase (Erk-1 and Erk-2) in D24 cells; test: Tyrosine phosphorylation and MAPK activation, immunoblotting; settings: 100 ng/ml, five minutes
Experimental: (§4) Derivatives of 32D cells expressing ErbB-4, either alone (D4 cells) or in combination with ErbB-2 (D24 cells) were incubated for 5 minutes at 37° C. with either NRG-4 or NRG-1β (each at 100 ng/ml). Whole cell extracts were then prepared, resolved by gel electrophoresis, and transferred to a nitrocellulose filter. The upper portion of the filter was immunoblotted with antibodies to phosphotyrosine (P-Tyr, the 150-200 kDa region is shown) or an antibody directed at the activated doubly phosphorylated form of the MAPK (Erk1 and Erk2, the 40-50 kDa region is shown). Antibodies were incubated with a secondary reagent coupled to horseradish peroxidase, allowing subsequent detection by chemiluminescence.
(§5) For receptor activation studies, derivatives of the 32D cell line were resuspended in phosphate-buffered solution (PBS) and incubated at 22 C for 15 minutes before adding growth factors and incubating for five minutes at 37 C. Cells were then pelleted and lysed in ice cold solubilization buffer [50 mM Tris-HCl pH 7.5, 150 mM NaCl, 1% Nonidet-P40, 0.5% Na-deoxycholate, 0.1% sodium dodecyl sulfate (SDS), 1.5 mM EDTA, 1.5 mM MgCl2, 2 mM Na-orthovanadate, 1 mM phenylmethylsulfonyl fluoride (PMSF), 10 µg/ml aprotinin and 10 µg/ml leupeptin] and left on ice for 15 minutes. The whole cell extract was then cleared by centrifugation (12,000×g for 10 minutes at 4 C), immediately boiled in reducing gel sample buffer, and resolved by 10% SDS PAGE before being transferred onto nitrocellulose. Filters were blocked in TBST buffer (0.02 M Tris-HCl pH 7.5, 0.15 M NaCl, 0.05% Tween-20) containing 1% milk for 40 minutes at 22 C, blotted with primary antibodies in TBST overnight at 4 C, followed by conjugation with a secondary antibody linked to horseradish peroxidase and subsequent detection by chemiluminescence (Amersham Corp.).
(§6) Evidently, NRG-4 binds to ErbB-4 and mediates cell proliferation through activation of this receptor. Because other ErbB ligands stimulate cell growth via tyrosine phosphorylation of their respective receptors and activation of the intervening mitogen-activated protein kinase (MAPK) cascade, these two signaling steps were tested in NRG-4-responsive myeloid cells expressing ErbB-4 (D4 and D24 cell lines). Cells were stimulated with 100 ng/ml of activating ligand for five minutes, followed by lysis and analysis by immunoblotting.

[9] = tested on: 180-kDa ErbB receptors and MAP-kinase (Erk-1 and Erk-2) in D4 cells; test: as above; settings: 100 ng/ml, five minutes
Experimental: as §4, §5, §6

B1: NRG-4: synthetic refolded mouse EGF-like domain of NRG-4 (residues 4 to 50, SEQ ID NO:2) (peptide, listed as Mus musculus)
chain: MPTDHEQPCGPRHRSFCLNGGICYVIPTIPSPFCRCIENYTGARCEEVFLPSSSIPSESNLSAAFVVLAVLLTLTIAALCFLCRKGHLQRASSVQCEISLVETNNTRTRHSHREH
[1]
  mitogenic response of D1 cells: did not respond
[2]
  mitogenic response of D12 cells: D24 cells) was the only line that responded mitogenically
D13 cells
  mitogenic response of D13 cells: D24 cells) was the only line that responded mitogenically
[3]
  mitogenic response of D2 cells: did not respond
D23 cells
  mitogenic response of D23 cells: D24 cells) was the only line that responded mitogenically
[4]; 24-hour dose-response, MTT
  mitogenic response of D24 cells: responded mitogenically
[4]; cells co-overexpressing ErbB-2 and ErbB-4
  mitogenic potency compared with NRG-1 in D24 cells: almost equipotent
[5]
  mitogenic response of D3 cells: did not respond
[6]
  mitogenic response of D4 cells: modest dose-dependent mitogenic response
[7]
  survival of D24 cells in the absence of IL-3: more robust, and akin to the NRG-1-treated controls
[8]
  activation of MAP-kinase (Erk-1 and Erk-2), D24 cells: accompanying activation of MAP-kinase
  phosphorylation of the 180-kDa ErbB receptors, D24 cells: stimulated phosphorylation
[9]
  activation of MAP-kinase (Erk-1 and Erk-2), D4 cells: accompanying activation of MAP-kinase
  phosphorylation of the 180-kDa ErbB receptors, D4 cells: stimulated phosphorylation
